This experiment deals with T1, His-mNeon-tagged EBP50 PDZ1-PDZ2 fragment (human, UniProt O14745-1 1-298).
T1 sequence (looked up): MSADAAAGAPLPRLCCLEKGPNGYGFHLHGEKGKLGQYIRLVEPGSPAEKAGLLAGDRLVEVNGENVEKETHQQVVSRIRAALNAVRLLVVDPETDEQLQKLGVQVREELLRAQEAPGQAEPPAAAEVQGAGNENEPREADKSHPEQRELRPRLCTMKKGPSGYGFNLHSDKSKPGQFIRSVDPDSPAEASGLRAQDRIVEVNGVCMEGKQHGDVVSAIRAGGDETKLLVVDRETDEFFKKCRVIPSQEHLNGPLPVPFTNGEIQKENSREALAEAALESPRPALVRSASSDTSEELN
Put plainly: pull-down.

B1: GST-CDHR5 CD (GST fusion of the cytoplasmic tail of CDHR5) (domain or fragment, human, UniProt Q9HBB8-1 697-845, looked up)
chain: RLKCCCGKAPEPQPQGFDNQAFLPDHKANWAPVPSPTHDPKPAEAPMPAEPAPPGPASPGGAPEPPAAARAGGSPTAVRSILTKERRPEGGYKAVWFGEDIGTEADVVVLNAPTLDVDGASDSGSGDEGEGAGRGGGPYDAPGGDDSYI
As to B1, the binding result is given as “binds”.

Values taken from paper PMC10916864 (Molecular Biology of the Cell, 2024).
